Measurements taken from patent US20140227287A1 (Astellas, published 2014).

Tests used:
[1] = molecular target: T1, human βNGF (R&D Systems, Inc.) (human, UniProt P01138 122-241); assay: cell-based or functional assay
[2] = molecular target: T2, mouse βNGF (R&D Systems, Inc.) (mouse, UniProt P01139 122-241); assay: cell-based or functional assay
[3] = molecular target: T1, human βNGF (R&D Systems, Inc.); assay: competition ELISA: inhibition of biotin-labeled human βNGF binding to immobilized human trkA (Example 3)
[4] = molecular target: T1, human βNGF (R&D Systems, Inc.); assay: isothermal titration calorimetry, human βNGF titrated into antibody in PBS, single site binding model
[5] = molecular target: T1, human βNGF (R&D Systems, Inc.); assay: Fab fragments evaluated by the tests of Examples 3, 6 and 7
Method: (§1) Inhibitory activity was measured by the following method. The human trkA (R&D Systems, Inc.) was added to a white Maxisorp 384 plate (Nunc) at 60 ng/well and immobilized by being incubated overnight at 4° C. The next day, the plate was washed once with the TBST wash solution, a blocking agent (TBST containing 20% Blocking One (Nacalai Tesque, Inc.)) was then added thereto, and the plate was left to stand at room temperature for an hour. Subsequently, a mixture obtained by mixing the biotin-labeled human βNGF (0.2 μg/ml) prepared as above with the antibody prepared in Example 2 was added to the trkA-immobilized plate having undergone blocking. […] After an hour of incubation at room temperature, the plate was washed three times with the TBST wash solution and then supplemented with APU4 (BioFx) which is a reagent detecting chemiluminescence, and the amount of chemiluminescence was measured by an EnVision counter (PerkinElmer Co., Ltd.).
(§2) The inhibitory activity was measured by the following method. […] By operating the FLIPR, a mixed solution of the antibody obtained in Example 2 and βNGF was added to the plate at 50 μl/well (final NGF concentration of 100 ng/ml), and the change in intracellular Ca²⁺ concentration was measured.

[6] = molecular target: T2, mouse βNGF (R&D Systems, Inc.); assay: method of Example 3 with biotin-labeled mouse βNGF (Example 4)
[7] = molecular target: T1, human βNGF (R&D Systems, Inc.); assay: NGF-trkA binding inhibition ELISA and cell assays (Examples 3, 6, 7)
Method: as §1, §2

B1: tanezumab (antibody, V domains shown)
VH: QVQLQESGPGLVKPSETLSLTCTVSGFSLIGYDLNWIRQPPGKGLEWIGIIWGDGTTDYNSAVKSRVTISKDTSKNQFSLKLSSVTAADTAVYYCARGGYWYATSYYFDYWGQGTLVTVSS
VL: DIQMTQSPSSLSASVGDRVTITCRASQSISNNLNWYQQKPGKAPKLLIYYTSRFHSGVPSRFSGSGSGTDFTFTISSLQPEDIATYYCQQEHTLPYTFGQGTKLEIKR
In the case of B1, the “IC50, inhibition of NGF-induced intracellular Ca2+ increase (method of Example 6)” value [1] is reported as 0.17 µg/mL, the “IC50, inhibition of NGF-induced intracellular Ca2+ increase (method of Example 6)” value [2] is reported as 0.23 µg/mL and the IC50 [3] is reported as 0.41 µg/mL. For the same binder, the “-TΔS” value [4] was -5.73 kcal/mol, the Kd [4] was 20.4 nM and the “ΔG” value [4] was -10.5 kcal/mol. For the same binder, the “ΔH” value [4] was -4.76 kcal/mol.

B2: PEGylated 1-15(N52D)-Fab′ (Fab, V domains shown)
VH: QVQLQQWGAGLLKPSETLSLTCAVYGGSFSGYYWSWVRQPPGKGLEWIGEIDHSGSTNNNPSLKSRVTISVGTSKNQFSLKLSSVTAADTAVYYCSRDGGPESGMGAFDIWGQGTMVTVSS
VL: not shown
modifications: 40 kDa PEG (maleimide, SUNBRIGHT GL2-400MA) on Cys of the carboxyl terminal (C226 based on EU index; Cys at position 230 of SEQ ID NO:10)
With B2 the “IC50, inhibition of NGF-induced intracellular Ca2+ increase (method of Example 6)” value [2] was 0.069 µg/mL and the “neutralizing activity relative to tanezumab (method of Example 6)” value [2] was ~3.3 times.

B3: Fab fragment of antibody 1-15 (papain digest) (Fab, V domains shown)
VH: QVQLQQWGAGLLKPSETLSLTCAVYGGSFSGYYWSWVRQPPGKGLEWIGEINHSGSTNNNPSLKSRVTISVGTSKNQFSLKLSSVTAADTAVYYCSRDGGPESGMGAFDIWGQGTMVTVSS
VL: not shown
notes: also called monovalent antibody fragment of 1-15
B3: binds [5].

B4: 1-15(N52D-A)-Fab′-10kPEG (Fab, V domains shown)
VH: QVQLQQWGAGLLKPSETLSLTCAVYGGSFSGYYWSWVRQPPGKGLEWIGEIDHSGSTNNNPSLKSRVTISVGTSKNQFSLKLSSVTAADTAVYYCSRDGGPESGMGAFDIWGQGTMVTVSS
VL: not shown
modifications: 10 kDa PEG conjugated by a procedure similar to Example 13 (hinge Cys)
In the case of B4, the “IC50, inhibition of NGF-induced intracellular Ca2+ increase (method of Example 6, final NGF concentration 50 ng/ml)” value [1] is reported as 0.028 µg/mL.

B5: antibody 1-15 (chimeric antibody) (antibody, V domains shown)
VH: QVQLQQWGAGLLKPSETLSLTCAVYGGSFSGYYWSWVRQPPGKGLEWIGEINHSGSTNNNPSLKSRVTISVGTSKNQFSLKLSSVTAADTAVYYCSRDGGPESGMGAFDIWGQGTMVTVSS
VL: not shown
notes: Heavy chain variable region has an N-glycosylation motif at N52 (Kabat)
B5: binds [6]; binds [7].

B6: 1-15(N52D-A)-Fab′-5kPEG (Fab, V domains shown)
VH: QVQLQQWGAGLLKPSETLSLTCAVYGGSFSGYYWSWVRQPPGKGLEWIGEIDHSGSTNNNPSLKSRVTISVGTSKNQFSLKLSSVTAADTAVYYCSRDGGPESGMGAFDIWGQGTMVTVSS
VL: not shown
modifications: 5 kDa PEG conjugated by a procedure similar to Example 13 (hinge Cys)
B6 was tested, and the “IC50, inhibition of NGF-induced intracellular Ca2+ increase (method of Example 6, final NGF concentration 50 ng/ml)” value [1] was 0.03 µg/mL.
